Test [1] addresses T1, CD70 expressed on the surface of Daudi lymphoma cells (Homo sapiens, UniProt P32970).
T1 construct: endogenous in cells; host or cells: Daudi (ATCC CCL-213), HuT 78 (TIB-161), Raji (CCL-86), Granta 519 (DSMZ 342)
T1 sequence (P32970 1-193): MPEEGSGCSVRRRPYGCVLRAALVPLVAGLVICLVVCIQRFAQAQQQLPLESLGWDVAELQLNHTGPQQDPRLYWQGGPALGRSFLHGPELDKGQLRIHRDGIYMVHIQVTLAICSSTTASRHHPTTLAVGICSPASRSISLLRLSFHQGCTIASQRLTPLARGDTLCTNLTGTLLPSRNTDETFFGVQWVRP
Kind of test: Flow cytometry binding to Daudi cells. Conditions: antibody 1 μg/ml. Here is the method: Anti-CD70 antibodies were tested for binding to lymphoma cells expressing CD70 on their cell surface by flow cytometry.
The lymphoma cell lines Daudi (ATCC Accession No. CCL-213), HuT 78 (ATCC Accession No. TIB-161) and Raji (ATCC Accession No. CCL-86) were each tested for antibody binding. Binding of the HuMAb 2H5 anti-CD70 human monoclonal antibody was assessed by incubating 1×10^5 cells with 2H5 at a concentration of 1 μg/ml. The cells were washed and binding was detected with a FITC-labeled anti-human IgG Ab. […] Flow cytometric analyses were performed using a FACSCalibur flow cytometry (Becton Dickinson, San Jose, Calif.). The anti-CD70 monoclonal antibody 2H5 bound to the lymphoma cell lines Daudi, HuT 78 and Raji, as measured by the mean fluorescent intensity (MFI) of staining.
The Daudi lymphoma cell line and 786-O renal carcinoma cell were further tested for antibody binding. Binding of the HuMAb 69A7 anti-CD70 human monoclonal antibody was assessed by incubating 2×10^5 cells with 69A7 at a concentration of 1 μg/ml. The cells were washed and binding was detected with a FITC-labeled anti-human IgG Ab. […] The anti-CD70 monoclonal antibody 69A7 bound to the Daudi lymphoma cell line and 786-O renal carcinoma cell line, as measured by the mean fluorescent intensity (MFI) of staining.
In general terms: A flow cytometer gives signals particle by particle.

A further test deals with T2, CD70 (Homo sapiens, UniProt P32970).
T2 sequence (P32970 1-193): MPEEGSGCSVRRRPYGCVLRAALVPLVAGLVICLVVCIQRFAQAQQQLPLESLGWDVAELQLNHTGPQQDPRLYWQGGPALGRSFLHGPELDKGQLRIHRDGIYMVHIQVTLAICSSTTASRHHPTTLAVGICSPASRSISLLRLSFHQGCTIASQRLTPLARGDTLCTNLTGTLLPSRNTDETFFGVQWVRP
Put plainly: Epitope binding experiments using BIAcore. Here is the method:
Such cross-competing antibodies can be identified based on their ability to cross-compete with 2H5, 10B4, 8B5, 18E7, 69A7, 69A7Y or 1F4 in standard CD70 binding assays. For example, standard ELISA assays can be used in which a recombinant human CD70 protein is immobilized on the plate, one of the antibodies is fluorescently labeled and the ability of non-labeled antibodies to compete off the binding of the labeled antibody is evaluated. Additionally or alternatively, BIAcore analysis can be used to assess the ability of the antibodies to cross-compete.

In the next test the test system is MEC-1 cells. Put plainly: ADCC fluorescence cytotoxicity assay, MEC-1. The class given is cell-based, human. Conditions: target to effector ratio 1:50. Here is the method: In this example, a defucosylated and non-defucosylated anti-CD70 monoclonal antibody was tested for the ability to kill CD70+cells in the presence of effector cells via antibody dependent cellular cytotoxicity (ADCC) in a fluorescence cytotoxicity assay
Human Anti-CD70 monoclonal antibody 2H5 was defucosylated as described above. Human effector cells were prepared from whole blood as follows. Human peripheral blood mononuclear cells were purified from heparinized whole blood by standard Ficoll-paque separation. The cells were resuspended in RPMI1640 media containing 10% FBS (culture media) and 200 U/ml of human IL-2 and incubated overnight at 37° C. The following day, the cells were collected and washed once in culture media and resuspended at 2×10^7 cells/ml. […]
The CD70+ cell lines ARH-77 (human B lymphoblast leukemia; ATCC Accession No. CRL-1621), MEC-1 (human chronic B cell leukemia; DSMZ Accession No. ACC 497), SU-DHL-6 (human B cell lymphoma, DSMZ Accession No. Acc572), IM-9 (human B lymphoblast; ATCC Accession No. CCL-159) and HuT 78 (human cutaneous lymphocyte lymphoma; ATCC Accession No. TIB-161), were tested for antibody specific ADCC to the defucosylated and non-defucosylated human anti-CD70 monoclonal antibody 2H5 using the Delfia fluorescence emission analysis as follows. […]

For test [2], the system named is peptide specific CD8+ T cells. Put plainly: CMV peptide specific CD8+ T cell expansion in PBMC. The class given is cell-based, human. On the procedure:
Human MHC class I haplotype B*3501+ peripheral blood mononuclear cells (PBMC) pre-screened for cytomegalovirus (CMV) specific T cell responses (Astarte, Inc) were cultured in the presence of 25 ng/ml of B*3501 binding CMV peptide […] (SEQ ID NO:90) (ProImmune, Oxford, UK) and serial dilutions of the HuMAb 2H5 for 11 days. Cultures were analyzed by flow cytometry for CD8+ T cells by PE conjugated anti-CD8 staining (clone RPA-T8, BD Biosciences), for peptide specific CD8+ T cells by APC labeled peptide-MHC Class I pentameric oligomer staining (F114-4B; ProImmunc) and for viability by lack of propidium iodide staining. An isotype control antibody was used as a negative control. […] CD8+ T cell expansion (FIG. 37A). […] Data is representative of one additional experiment performed with the same donor.
Human MHC class I haplotype B*3501+PBMC pre-screened for cytomegalovirus (CMV) specific T cell responses (Astarte, Inc) were cultured in presence of 25 ng/ml of B*3501 binding CMV peptide […] (ProImmune) (SEQ ID NO:90) and 20 μgs/ml of the HuMAb 2H5 in the presence or absence of serial dilutions of an anti-human CD16 (FcRγIII) functional blocking Ab (clone 3G8; BD Biosciences) for 11 days and were then analyzed by flow cytometry for peptide specific CD8+ cell numbers as described above. […] Approximately 1000-fold more 3G8 was required to reverse 2H5 NF mediated inhibition compared to 2H5.

B1: anti-CD70 human monoclonal antibody 69A7 (antibody, V domains shown)
VH: QVQLQESGPGLVKPSETLSLTCTVSGGSVSSDYYYWSWIRQPPGKGLEWLGYIYYSGSTNYNPSLKSRVTISVDTSKNQFSLKLRSVTTADTAVYYCARGDGDYGGNCFDYWGQGTLVTVSS
VL: EIVLTQSPATLSLSPGERATLSCRASQSVSSYLAWYQQKPGQAPRLLIFDASNRATGIPARFSGSGSGTDFTLTISSLEPEDFAVYYCQQRSNWPLTFGGGTKVEIK
notes: Human IgG from hybridoma; also called HuMAb 69A7; FITC-conjugated 69A7
In the case of B1, the “binding to Daudi cells (MFI)” value in test [1] was “bound”. In addition, the “epitope on CD70” value in the test with CD70 is on record as “distinct epitopes”.

B2: 2H5 NF: 2H5 HuMAb lacking fucosyl residues, expressed in CHO cell line Ms704-PF (antibody, V domains shown)
VH: QVQLVESGGGVVQPGRSLRLSCAASGFTFSSYIMHWVRQAPGKGLEWVAVISYDGRNKYYADSVKGRFTISRDNSKNTLYLQMNSLRAEDTAVYYCARDTDGYDFDYWGQGTLVTVSS
VL: EIVLTQSPATLSLSPGERATLSCRASQSVSSYLAWYQQKPGQAPRLLIYDASNRATGIPARFSGSGSGTDFTLTISSLEPEDFAVYYCQQRTNWPLTFGGGTKVEIK
Regarding B2, the “ADCC, % specific lysis of MEC-1” value in the test on MEC-1 cells is “increased percentage of specific lysis”. Moreover, in test [2] (25 ng/ml CMV peptide, 11 days), the “peptide specific CD8+ T cell expansion” value is listed as “completely inhibited” and the “total CD8+ cell numbers” value is on record as “no significant reduction”. Further, the “3G8 required to reverse inhibition compared to 2H5” value in test [2] (antibody 20 μgs/ml) is recorded as “Approximately 1000 fold”. Further, the “effect of anti-CD16 Ab 3G8 on inhibition of peptide specific CD8+ T cell expansion” value in test [2] (antibody 20 μgs/ml, serial dilutions of 3G8) is recorded as “Dose dependent reversal”.
